From US10562947B2, “Compositions and methods for preventing or treating diseases, conditions or processes characterized by aberrant fibroblast proliferation and extracellular matrix deposition” (MOERAE MATRIX, INC., priority 2011, dated 2020)
Where a SMILES comes first, the peptide text is derived from it.

Columns and labels:
Experiment in all cases: Kinase Profiling Assay
Format in all cases: biochemical
[1] = target: Abl(h) (Homo sapiens, UniProt P00519); conditions: 100 μM peptide
Summary of the method: (§1)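 Selectivity profiling: MK2-targeting peptides tested on 266 human kinases. All activity determinations done in duplicate.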

[2] = target: Aurora-B(h) (Homo sapiens, UniProt Q96GD4); conditions: 100 μM peptide
Chain of Aurora-B(h) (Q96GD4 whole entry): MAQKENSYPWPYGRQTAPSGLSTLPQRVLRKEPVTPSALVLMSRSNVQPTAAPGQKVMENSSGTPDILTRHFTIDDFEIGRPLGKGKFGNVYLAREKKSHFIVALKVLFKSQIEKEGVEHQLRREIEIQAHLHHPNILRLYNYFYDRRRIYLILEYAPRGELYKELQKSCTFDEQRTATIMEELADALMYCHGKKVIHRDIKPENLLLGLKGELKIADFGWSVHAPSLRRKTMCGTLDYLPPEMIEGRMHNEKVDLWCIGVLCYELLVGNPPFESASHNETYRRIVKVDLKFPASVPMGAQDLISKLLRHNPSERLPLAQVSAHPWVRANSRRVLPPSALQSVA
Summary of the method: as §1

[3] = target: CDK7/cyclinH/MAT1(h) (Homo sapiens, UniProt P50613); conditions: 100 μM peptide
Chain of CDK7/cyclinH/MAT1(h) (P50613 whole entry): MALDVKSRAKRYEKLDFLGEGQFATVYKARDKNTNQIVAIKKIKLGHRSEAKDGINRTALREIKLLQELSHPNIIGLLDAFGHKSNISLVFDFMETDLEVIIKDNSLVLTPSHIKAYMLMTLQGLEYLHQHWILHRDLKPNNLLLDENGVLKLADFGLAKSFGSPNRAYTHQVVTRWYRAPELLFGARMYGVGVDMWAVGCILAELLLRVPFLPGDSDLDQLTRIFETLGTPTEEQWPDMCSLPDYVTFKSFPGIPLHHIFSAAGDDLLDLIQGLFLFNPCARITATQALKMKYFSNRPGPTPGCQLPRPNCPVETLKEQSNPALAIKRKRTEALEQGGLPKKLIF
Chain of CDK7/cyclinH/MAT1(h) (P51946 whole entry partner): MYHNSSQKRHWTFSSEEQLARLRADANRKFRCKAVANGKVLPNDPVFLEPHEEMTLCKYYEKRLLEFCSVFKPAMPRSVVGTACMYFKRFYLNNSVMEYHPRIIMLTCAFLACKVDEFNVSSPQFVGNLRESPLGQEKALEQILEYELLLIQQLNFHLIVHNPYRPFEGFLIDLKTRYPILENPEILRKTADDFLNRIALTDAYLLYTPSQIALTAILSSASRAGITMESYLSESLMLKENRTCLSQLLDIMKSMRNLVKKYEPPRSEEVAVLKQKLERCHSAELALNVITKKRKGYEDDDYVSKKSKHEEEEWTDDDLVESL
Chain of CDK7/cyclinH/MAT1(h) (P51948 whole entry partner): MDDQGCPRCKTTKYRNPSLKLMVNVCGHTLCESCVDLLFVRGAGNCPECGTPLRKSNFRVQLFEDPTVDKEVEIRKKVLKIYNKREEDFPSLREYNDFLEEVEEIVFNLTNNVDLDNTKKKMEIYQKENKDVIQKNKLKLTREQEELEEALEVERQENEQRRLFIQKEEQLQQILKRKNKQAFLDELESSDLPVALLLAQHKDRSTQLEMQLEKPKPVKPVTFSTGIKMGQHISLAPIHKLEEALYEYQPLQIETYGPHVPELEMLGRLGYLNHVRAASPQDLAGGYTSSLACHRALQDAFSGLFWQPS
Summary of the method: as §1

[4] = target: CHK2(h) (Homo sapiens, UniProt O96017); conditions: 100 μM peptide
Chain of CHK2(h) (O96017 whole entry): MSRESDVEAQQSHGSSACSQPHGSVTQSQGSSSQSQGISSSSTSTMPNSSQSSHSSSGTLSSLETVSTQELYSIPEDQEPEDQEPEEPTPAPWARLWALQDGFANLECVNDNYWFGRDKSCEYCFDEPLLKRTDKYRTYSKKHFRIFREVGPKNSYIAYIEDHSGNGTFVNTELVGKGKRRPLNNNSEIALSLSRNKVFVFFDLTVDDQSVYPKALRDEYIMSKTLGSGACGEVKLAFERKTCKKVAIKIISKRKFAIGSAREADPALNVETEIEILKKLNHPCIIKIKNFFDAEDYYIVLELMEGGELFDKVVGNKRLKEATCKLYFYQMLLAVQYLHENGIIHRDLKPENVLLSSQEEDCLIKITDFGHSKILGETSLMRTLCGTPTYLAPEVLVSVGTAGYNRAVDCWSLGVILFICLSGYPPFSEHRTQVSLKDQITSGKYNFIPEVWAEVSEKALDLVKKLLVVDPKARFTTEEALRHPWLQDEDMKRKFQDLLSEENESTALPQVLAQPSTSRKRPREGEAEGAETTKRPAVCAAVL
Summary of the method: as §1

[5] = target: T1, IKKα(h) (Homo sapiens, UniProt O15111); conditions: 100 μM peptide
T1 construct: purchased Millipore
T1 sequence (O15111 1-745): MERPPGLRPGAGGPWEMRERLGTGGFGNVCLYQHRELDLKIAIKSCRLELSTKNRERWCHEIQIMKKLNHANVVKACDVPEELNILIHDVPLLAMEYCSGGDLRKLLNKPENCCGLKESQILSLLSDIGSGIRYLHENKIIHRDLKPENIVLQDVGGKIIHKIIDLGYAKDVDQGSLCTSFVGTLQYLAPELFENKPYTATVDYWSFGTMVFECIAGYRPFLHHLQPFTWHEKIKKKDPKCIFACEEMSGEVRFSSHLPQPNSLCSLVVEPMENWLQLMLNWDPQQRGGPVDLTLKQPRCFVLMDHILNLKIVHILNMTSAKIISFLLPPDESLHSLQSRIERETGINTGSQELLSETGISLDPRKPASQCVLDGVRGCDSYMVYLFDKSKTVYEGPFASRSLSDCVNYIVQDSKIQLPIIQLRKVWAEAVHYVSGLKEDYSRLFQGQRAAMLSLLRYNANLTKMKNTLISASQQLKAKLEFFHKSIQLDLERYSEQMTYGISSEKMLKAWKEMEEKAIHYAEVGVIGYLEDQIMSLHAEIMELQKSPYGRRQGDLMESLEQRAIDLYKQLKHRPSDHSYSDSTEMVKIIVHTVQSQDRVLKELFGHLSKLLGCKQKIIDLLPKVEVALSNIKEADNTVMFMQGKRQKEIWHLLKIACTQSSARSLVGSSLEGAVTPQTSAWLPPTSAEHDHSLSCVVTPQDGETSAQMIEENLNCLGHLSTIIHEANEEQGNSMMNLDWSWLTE
Summary of the method: as §1

[6] = target: LIMK1(h) (Homo sapiens, UniProt P53667); conditions: 100 μM peptide
Chain of LIMK1(h) (P53667 whole entry): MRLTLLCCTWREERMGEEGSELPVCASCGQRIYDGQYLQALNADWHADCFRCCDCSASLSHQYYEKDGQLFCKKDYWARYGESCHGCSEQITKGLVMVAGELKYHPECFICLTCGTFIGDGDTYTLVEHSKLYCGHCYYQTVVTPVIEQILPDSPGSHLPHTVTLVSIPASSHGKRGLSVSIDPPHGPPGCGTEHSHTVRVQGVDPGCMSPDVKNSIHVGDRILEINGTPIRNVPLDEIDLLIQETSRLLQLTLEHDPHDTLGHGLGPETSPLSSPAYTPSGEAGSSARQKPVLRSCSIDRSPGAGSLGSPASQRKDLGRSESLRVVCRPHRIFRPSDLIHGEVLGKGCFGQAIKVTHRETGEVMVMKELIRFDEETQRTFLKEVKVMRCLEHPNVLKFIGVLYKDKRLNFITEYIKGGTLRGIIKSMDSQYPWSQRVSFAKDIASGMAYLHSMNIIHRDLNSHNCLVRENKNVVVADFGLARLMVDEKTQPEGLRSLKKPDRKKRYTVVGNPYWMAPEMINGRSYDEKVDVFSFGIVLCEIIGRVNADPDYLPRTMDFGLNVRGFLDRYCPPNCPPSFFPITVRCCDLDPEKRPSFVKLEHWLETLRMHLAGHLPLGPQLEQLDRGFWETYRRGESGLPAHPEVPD
Summary of the method: as §1

[7] = target: MAPKAP-K3(h) (Homo sapiens, UniProt Q16644); conditions: for MAPKAP-K3(h) % activity: 100 μM peptide
Chain of MAPKAP-K3(h) (Q16644 whole entry): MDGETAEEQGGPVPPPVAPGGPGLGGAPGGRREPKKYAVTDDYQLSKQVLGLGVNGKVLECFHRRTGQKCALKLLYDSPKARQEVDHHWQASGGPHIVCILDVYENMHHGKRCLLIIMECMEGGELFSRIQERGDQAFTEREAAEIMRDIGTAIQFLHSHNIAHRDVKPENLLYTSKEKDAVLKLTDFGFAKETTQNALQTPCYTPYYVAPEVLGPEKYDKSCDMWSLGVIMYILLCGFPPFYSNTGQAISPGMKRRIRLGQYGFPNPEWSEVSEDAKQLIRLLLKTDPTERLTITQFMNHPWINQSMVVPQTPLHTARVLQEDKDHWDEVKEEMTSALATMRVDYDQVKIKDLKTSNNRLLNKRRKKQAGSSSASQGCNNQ
Summary of the method: as §1

[8] = target: MEK1(h) (Homo sapiens, UniProt Q02750); conditions: 100 μM peptide
Summary of the method: as §1

[9] = target: T2, MST1(h) (Homo sapiens, UniProt Q13043); conditions: 100 μM peptide
T2 sequence (Q13043 1-487): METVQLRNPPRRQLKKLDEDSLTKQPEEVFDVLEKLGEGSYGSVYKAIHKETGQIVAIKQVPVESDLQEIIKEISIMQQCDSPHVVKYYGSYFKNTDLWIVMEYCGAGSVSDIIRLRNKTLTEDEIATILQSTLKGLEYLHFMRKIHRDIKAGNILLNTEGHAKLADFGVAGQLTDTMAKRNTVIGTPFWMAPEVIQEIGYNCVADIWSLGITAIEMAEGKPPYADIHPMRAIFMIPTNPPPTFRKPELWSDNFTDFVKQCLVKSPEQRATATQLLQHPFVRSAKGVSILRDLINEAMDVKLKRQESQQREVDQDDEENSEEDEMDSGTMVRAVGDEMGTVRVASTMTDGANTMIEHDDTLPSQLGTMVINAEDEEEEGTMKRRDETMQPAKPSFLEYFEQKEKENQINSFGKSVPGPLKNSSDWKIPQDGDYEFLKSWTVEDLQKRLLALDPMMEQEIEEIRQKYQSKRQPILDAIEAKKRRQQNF
Summary of the method: as §1

[10] = target: Met(Y1248D)(h) (Homo sapiens, UniProt P08581, Y1230D); conditions: 100 μM peptide
Summary of the method: as §1

[11] = target: Met(h) (Homo sapiens, UniProt P08581); conditions: 100 μM peptide
Summary of the method: as §1

[12] = target: PDGFRα(V561D)(h) (Homo sapiens, UniProt P16234, V561D); conditions: 100 μM peptide
Chain of PDGFRα(V561D)(h) (P16234 24-1089 V561D): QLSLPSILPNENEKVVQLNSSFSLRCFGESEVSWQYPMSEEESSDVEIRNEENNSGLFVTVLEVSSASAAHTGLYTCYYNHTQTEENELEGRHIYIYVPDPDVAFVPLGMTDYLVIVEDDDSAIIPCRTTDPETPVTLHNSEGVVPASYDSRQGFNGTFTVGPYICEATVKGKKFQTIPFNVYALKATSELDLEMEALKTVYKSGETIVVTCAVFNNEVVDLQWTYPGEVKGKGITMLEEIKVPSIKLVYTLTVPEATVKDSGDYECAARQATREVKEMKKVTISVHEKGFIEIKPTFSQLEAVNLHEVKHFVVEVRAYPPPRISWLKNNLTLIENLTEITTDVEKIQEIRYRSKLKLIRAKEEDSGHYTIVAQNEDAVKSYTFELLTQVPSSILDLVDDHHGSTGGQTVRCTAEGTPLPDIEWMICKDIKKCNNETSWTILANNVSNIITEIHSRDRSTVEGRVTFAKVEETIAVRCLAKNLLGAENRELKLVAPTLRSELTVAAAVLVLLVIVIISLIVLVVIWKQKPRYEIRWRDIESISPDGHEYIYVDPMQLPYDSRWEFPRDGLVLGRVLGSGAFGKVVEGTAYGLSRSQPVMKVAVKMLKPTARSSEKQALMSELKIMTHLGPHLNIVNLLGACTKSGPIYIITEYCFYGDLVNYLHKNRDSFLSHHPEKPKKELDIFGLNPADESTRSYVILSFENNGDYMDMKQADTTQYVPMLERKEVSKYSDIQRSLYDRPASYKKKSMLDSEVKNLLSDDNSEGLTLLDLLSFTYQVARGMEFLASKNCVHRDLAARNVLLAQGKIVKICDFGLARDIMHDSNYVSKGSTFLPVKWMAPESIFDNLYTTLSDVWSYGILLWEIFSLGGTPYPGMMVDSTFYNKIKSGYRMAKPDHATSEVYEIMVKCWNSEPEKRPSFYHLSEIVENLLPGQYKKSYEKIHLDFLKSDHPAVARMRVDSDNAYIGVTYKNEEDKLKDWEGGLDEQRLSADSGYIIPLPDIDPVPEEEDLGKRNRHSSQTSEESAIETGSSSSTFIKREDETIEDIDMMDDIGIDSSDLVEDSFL
Summary of the method: as §1

[13] = target: T3, Ret(V804L)(h) (Homo sapiens, UniProt P07949, V804L); conditions: 100 μM peptide
T3 construct: purchased Millipore (IC50 Profiler Express service)
Summary of the method: as §1

[14] = target: T4, Rsk1(h) (Homo sapiens, UniProt Q15418); conditions: 100 μM peptide
T4 construct: purchased Millipore (IC50 Profiler Express service)
T4 sequence (Q15418 whole entry): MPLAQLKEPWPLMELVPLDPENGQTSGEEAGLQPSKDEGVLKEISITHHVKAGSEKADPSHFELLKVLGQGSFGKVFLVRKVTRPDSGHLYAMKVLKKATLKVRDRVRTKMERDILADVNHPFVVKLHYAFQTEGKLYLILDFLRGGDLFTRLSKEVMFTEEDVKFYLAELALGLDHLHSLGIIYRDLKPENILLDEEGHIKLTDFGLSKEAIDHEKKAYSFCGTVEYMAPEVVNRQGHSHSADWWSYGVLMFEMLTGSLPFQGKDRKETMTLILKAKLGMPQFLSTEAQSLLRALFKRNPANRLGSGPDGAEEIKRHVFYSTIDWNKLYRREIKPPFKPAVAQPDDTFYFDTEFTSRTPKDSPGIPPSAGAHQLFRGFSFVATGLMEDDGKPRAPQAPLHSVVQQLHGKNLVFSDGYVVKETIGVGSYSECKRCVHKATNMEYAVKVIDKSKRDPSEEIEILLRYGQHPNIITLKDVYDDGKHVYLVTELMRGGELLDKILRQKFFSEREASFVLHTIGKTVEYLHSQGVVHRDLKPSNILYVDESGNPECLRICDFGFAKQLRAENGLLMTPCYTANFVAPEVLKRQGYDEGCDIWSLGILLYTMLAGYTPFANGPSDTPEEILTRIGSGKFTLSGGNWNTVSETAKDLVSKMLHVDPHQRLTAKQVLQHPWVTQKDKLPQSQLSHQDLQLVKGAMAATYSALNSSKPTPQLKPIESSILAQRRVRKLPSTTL
Summary of the method: as §1

[15] = target: SRPK1(h) (Homo sapiens, UniProt Q96SB4); conditions: 100 μM peptide
Summary of the method: as §1

[16] = target: T5, Tec(h) activated (Homo sapiens, UniProt P42680); conditions: 100 μM peptide
T5 sequence (P42680 1-631): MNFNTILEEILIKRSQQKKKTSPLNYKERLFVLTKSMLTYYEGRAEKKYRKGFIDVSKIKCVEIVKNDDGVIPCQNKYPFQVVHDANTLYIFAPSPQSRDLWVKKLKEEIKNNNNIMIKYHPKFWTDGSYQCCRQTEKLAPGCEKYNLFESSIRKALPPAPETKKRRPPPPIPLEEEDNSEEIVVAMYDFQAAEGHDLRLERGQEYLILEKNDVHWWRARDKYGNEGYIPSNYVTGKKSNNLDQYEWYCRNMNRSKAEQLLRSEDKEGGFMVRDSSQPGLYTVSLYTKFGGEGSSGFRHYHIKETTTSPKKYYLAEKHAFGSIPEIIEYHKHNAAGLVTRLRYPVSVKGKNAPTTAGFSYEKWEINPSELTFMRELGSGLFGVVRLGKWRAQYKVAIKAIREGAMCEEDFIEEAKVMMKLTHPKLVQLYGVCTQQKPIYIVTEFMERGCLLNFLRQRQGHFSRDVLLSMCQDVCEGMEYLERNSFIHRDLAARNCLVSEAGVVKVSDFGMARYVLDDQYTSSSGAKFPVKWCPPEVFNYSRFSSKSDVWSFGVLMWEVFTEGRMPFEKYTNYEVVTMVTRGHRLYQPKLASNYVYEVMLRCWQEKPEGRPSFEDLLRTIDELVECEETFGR
Summary of the method: as §1

| Molecule | Abl(h) % activity [1] [%] | Aurora-B(h) % activity [2] [%] | CDK7/cyclinH/MAT1(h) % activity [3] [%] | CHK2(h) % activity [4] [%] | IKKα(h) % activity [5] [%] | LIMK1(h) % activity [6] [%] | MAPKAP-K3(h) % activity [7] [%] | MEK1(h) % activity [8] [%] | MST1(h) % activity [9] [%] | Met(Y1248D)(h) % activity [10] [%] | Met(h) % activity [11] [%] | PDGFRα(V561D)(h) % activity [12] [%] | Ret(V804L)(h) % activity [13] [%] | Rsk1(h) % activity [14] [%] | SRPK1(h) % activity [15] [%] | Tec(h) activated % activity [16] [%] | inhibition at 100 µM ([7]; read-out: inhibition of kinase activity of MK3) [%] |
| --- | --- | --- | --- | --- | --- | --- | --- | --- | --- | --- | --- | --- | --- | --- | --- | --- | --- |
| HRRIKAWLKKIKALARQLGVAA (Mammalian) [MMI-0500] | 16 | 5 | 15 | 13 | 50 | 87 | 9 | 21 | 3 | 218 | 27 | 146 | 20 | 34 | 80 | 33 |  |
| KAFAKLAARLYRKALARQLGVAA [MMI-0400] | 84 | 150 | 47 | 54 | 87 | 92 | 7 | 77 | 6 | 31 | 62 | 100 | 73 | 54 | 96 | 29 |  |
| FAKLAARLYRKALARQLGVAA [MMI-0300] | 69 | 128 | 65 | 66 | 93 | 88 | 3 | 77 | 14 |  | 65 | 82 | 79 | 46 | 90 | 56 |  |
| YARAAARQARAKALNRQLGVA (Mammalian) [MMI-0200] |  | 166 | 67 |  |  |  | 39 |  | 72 | 118 | 71 |  | 100 |  | 93 | 77 |  |
| CC(C)C[C@H](NC(=O)[C@H](C)NC(=O)[C@H](CCCCN)NC(=O)[C@H](C)NC(=O)[C@H](CCCNC(=N)N)NC(=O)[C@H](C)NC(=O)[C@H](CCC(N)=O)NC(=O)[C@H](CCCNC(=N)N)NC(=O)[C@H](C)NC(=O)[C@H](C)NC(=O)[C@H](C)NC(=O)[C@H](CCCNC(=N)N)NC(=O)[C@H](C)NC(=O)[C@@H](N)Cc1ccc(O)cc1)C(=O)N[C@@H](C)C(=O)N[C@@H](CCCNC(=N)N)C(=O)N[C@@H](CCC(N)=O)C(=O)N[C@@H](CC(C)C)C(=O)NCC(=O)N[C@H](C(=O)N[C@@H](C)C(=O)N[C@@H](C)C(=O)O)C(C)C [MMI-0100] (H-YARAAARQARAKALARQLGVAA-OH; N-terminus and C-terminus assumed) |  |  |  |  |  |  |  |  |  |  |  |  |  |  |  |  | > 65 |
